Data set [1] deals with the molecule itself. In words: crystal structure; Δ25 crystals grown at high pH (Tris pH 8.5) with BaCl2, soaked in 50 mM BaCl2 or 150 mM NaBr; space group P212121; resting state; anomalous diffraction.
Data set [2] deals with the molecule itself. Description: crystal structure; Δ13 crystals grown at 20°C, HEPES pH 6.9, sodium formate, PEG 3,350, soaked in 50 mM BaCl2; space group H3; desensitized state; anomalous diffraction.

B1: chicken ASIC1a Δ25 crystallization construct (residues 25-463 of chicken ASIC1) (domain or fragment, UniProt Q1XA76 25-463, looked up)
chain: SSTLHGISHIFSYERLSLKRVVWALCFMGSLALLALVCTNRIQYYFLYPHVTKLDEVAATRLTFPAVTFCNLNEFRFSRVTKNDLYHAGELLALLNNRYEIPDTQTADEKQLEILQDKANFRNFKPKPFNMLEFYDRAGHDIREMLLSCFFRGEQCSPEDFKVVFTRYGKCYTFNAGQDGKPRLITMKGGTGNGLEIMLDIQQDEYLPVWGETDETSFEAGIKVQIHSQDEPPLIDQLGFGVAPGFQTFVSCQEQRLIYLPPPWGDCKATTGDSEFYDTYSITACRIDCETRYLVENCNCRMVHMPGDAPYCTPEQYKECADPALDFLVEKDNEYCVCEMPCNVTRYGKELSMVKIPSKASAKYLAKKYNKSEQYIGENILVLDIFFEALNYETIEQKKAYEVAGLLGDIGGQMGLFIGASILTVLELFDYAYEVIKHR
notes: chicken ASIC1 (acid sensing ion channel 1a), residues 25-463; 24 residues removed from the amino-terminus and 64 from the carboxy-terminus; Homotrimeric channel; three subunits around a molecular 3-fold axis in the P212121 crystals; also called resting channel; cASIC1a
As to B1, the binding result in data set [1] is “binds”.

B2: chicken ASIC1a Δ13 crystallization construct (residues 14-463 of chicken ASIC1) (domain or fragment, UniProt Q1XA76 14-463, looked up)
chain: GQPVSIQAFASSSTLHGISHIFSYERLSLKRVVWALCFMGSLALLALVCTNRIQYYFLYPHVTKLDEVAATRLTFPAVTFCNLNEFRFSRVTKNDLYHAGELLALLNNRYEIPDTQTADEKQLEILQDKANFRNFKPKPFNMLEFYDRAGHDIREMLLSCFFRGEQCSPEDFKVVFTRYGKCYTFNAGQDGKPRLITMKGGTGNGLEIMLDIQQDEYLPVWGETDETSFEAGIKVQIHSQDEPPLIDQLGFGVAPGFQTFVSCQEQRLIYLPPPWGDCKATTGDSEFYDTYSITACRIDCETRYLVENCNCRMVHMPGDAPYCTPEQYKECADPALDFLVEKDNEYCVCEMPCNVTRYGKELSMVKIPSKASAKYLAKKYNKSEQYIGENILVLDIFFEALNYETIEQKKAYEVAGLLGDIGGQMGLFIGASILTVLELFDYAYEVIKHR
notes: chicken ASIC1 (acid sensing ion channel 1a), residues 14-463; 13 residues removed from the amino-terminus and 64 from the carboxy-terminus; Homotrimeric channel; crystals in space group H3; also called desensitized channel; cASIC1a
For B2, the binding result in data set [2] was “binds”.

Values taken from PMC6114778, “Divalent cation and chloride ion sites of chicken acid sensing ion channel 1a elucidated by x-ray crystallography” (PLoS ONE, 2018).
